Data taken from patent publication US20240425830, “ENGINEERED CAS12I NUCLEASE, EFFECTOR PROTEIN AND USE THEREOF” (Institute of Zoology, Chinese Academy of Sciences, published 2024).
Where a chain is given by its changes, count along the chain named.

T1: Cas12i2 wild-type
T1 chain: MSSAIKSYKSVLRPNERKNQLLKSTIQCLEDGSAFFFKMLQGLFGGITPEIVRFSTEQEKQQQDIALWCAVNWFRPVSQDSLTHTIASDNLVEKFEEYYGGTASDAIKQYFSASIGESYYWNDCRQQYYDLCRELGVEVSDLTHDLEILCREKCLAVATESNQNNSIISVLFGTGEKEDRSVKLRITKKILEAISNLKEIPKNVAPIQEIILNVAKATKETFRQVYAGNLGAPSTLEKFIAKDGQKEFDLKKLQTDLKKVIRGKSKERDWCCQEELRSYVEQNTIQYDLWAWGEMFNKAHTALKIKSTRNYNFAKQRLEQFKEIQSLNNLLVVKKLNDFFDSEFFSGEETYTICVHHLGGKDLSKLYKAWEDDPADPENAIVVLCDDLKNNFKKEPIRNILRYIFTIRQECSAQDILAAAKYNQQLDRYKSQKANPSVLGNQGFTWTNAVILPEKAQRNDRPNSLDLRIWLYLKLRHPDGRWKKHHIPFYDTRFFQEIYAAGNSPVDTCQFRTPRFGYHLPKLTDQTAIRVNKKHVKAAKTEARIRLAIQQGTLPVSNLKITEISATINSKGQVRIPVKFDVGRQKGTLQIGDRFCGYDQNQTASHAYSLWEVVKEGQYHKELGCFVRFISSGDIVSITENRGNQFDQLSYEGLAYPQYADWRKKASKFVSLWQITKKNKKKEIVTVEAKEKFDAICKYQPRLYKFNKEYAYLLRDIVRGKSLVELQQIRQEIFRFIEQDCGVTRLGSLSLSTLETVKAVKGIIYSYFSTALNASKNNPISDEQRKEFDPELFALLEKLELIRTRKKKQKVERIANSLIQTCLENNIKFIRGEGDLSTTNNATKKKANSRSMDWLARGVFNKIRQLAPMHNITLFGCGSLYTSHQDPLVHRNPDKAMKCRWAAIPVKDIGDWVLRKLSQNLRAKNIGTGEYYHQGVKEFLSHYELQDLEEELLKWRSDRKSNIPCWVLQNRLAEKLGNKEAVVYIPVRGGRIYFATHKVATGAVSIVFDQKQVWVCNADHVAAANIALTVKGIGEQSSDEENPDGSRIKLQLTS

T2: Cas12i2 E563R (E563R)
T2 chain: T1 chain with E563R

B1: crRNA CCR5-3 ; CCR5-3 target (ssRNA ; dsDNA)
RNA: AGAAAUCCGUCUUUCAUUGACGGAGGCCAAAGAAUUCCUGGAA
DNA 1: AGGCCAAAGAATTCCTGGAA
DNA 2: TTCCAGGAATTCTTTGGCCT
B2: crRNA RNF2-7 ; RNF2-7 target (ssRNA ; dsDNA)
RNA: AGAAAUCCGUCUUUCAUUGACGGUUCAACAUAUCCAAACAAAU
DNA 1: TTCAACATATCCAAACAAAT
DNA 2: ATTTGTTTGGATATGTTGAA

Assays:
Cas12i2 wild-type = target: T1, Cas12i2 wild-type; experiment: cell_activity; HEK293T
Protocol: (§1) HEK293T cells were cultured in DMEM (Gibco) comprising 1% penicillin-streptomycin (Gibco) and 10% fetal calf serum (Gibco). Cells were seeded in 24-well cell culture dishes (Corning) for 16 hours until cell density reached 70%. By using Lipofectamine 3000 (Invitrogen), 600 ng of plasmid encoding Cas12i2 protein and 300 ng of plasmid encoding crRNA were transfected into each 24-well cell culture dish. After approximately 68 hours of transfection, HEK293T cells to be subjected to fluorescence-activated cell sorting (FACS) were digested with trypsin-EDTA (0.05%) (Gibco). Cell sorting was performed using MoFlo XDP (Beckman Coulter) with GFP channel.
(§2) FACS-sorted GFP-positive HEK293T cells were lysed with buffer L and incubated at 55° C. for 3 h and then at 95° C. for 10 min. PCR amplification of dsDNA fragments comprising target sites in different genomic sites was performed using corresponding primers. For targeted deep sequencing, cell lysate was directly used as a template to directly amplify the target site through barcoded PCR. PCR products were purified and pooled into several libraries for high-throughput sequencing. The frequency (%) of indels was analyzed using CRISPResso2 software by calculating the ratio of reads comprising indels. In this application, the index of indel frequency (%) was uniformly used to compare and analyze gene editing efficiency. Reads with less than 0.05% of complete reads are discarded.

Cas12i2 E563R = target: T2, Cas12i2 E563R; experiment: cell_activity; HEK293T
Protocol: as §1, §2

Row | Binder | activity (Cas12i2 wild-type) | activity (Cas12i2 E563R)
1 | B1 | 10.4 % indel | 55.5 % indel
2 | B2 | 11.7 % indel | 68.3 % indel
